Tested on: dynamin
Experiment: Dynamin self-assembly, apparent affinity measured in vitro
Type: biochemical
From the text: The fact that this significant decrease in the fluorescence lifetime of ECFP is statistically insignificant is due to high fluctuations of the lifetimes between different cells (high error bar in Table 3). This is most likely due to ability of dynK694A to overcome its assembly defect under certain circumstances as shown in vitro. The fact that ECFP-dynK694A has a faster lifetime than ECFP-dynI690K is in agreement with its less severe assembly defect measured in vitro (apparent affinity of dynK694A is ˜7-fold lower then dynWT, whereas it is unmeasurable for dynI690K).

B1: dynK694A: dominant activator dynamin mutant impaired in self-assembly (protein)
chain: MGNRGMEDLIPLVNRLQDAFSAIGQNADLDLPQIAVVGGQSAGKSSVLENFVGRDFLPRGSGIVTRRPLVLQLVNATTEYAEFLHCKGKKFTDFEEVRLEIEAETDRVTGTNKGISPVPINLRVYSPHVLNLTLVDLPGMTKVPVGDQPPDIEFQIRDMLMQFVTKENCLILAVSPANSDLANSDALKVAKEVDPQGQRTIGVITKLDLMDEGTDARDVLENKLLPLRRGYIGVVNRSQKDIDGKKDITAALAAERKFFLSHPSYRHLADRMGTPYLQKVLNQQLTNHIRDTLPGLRNKLQSQLLSIEKEVEEYKNFRPDDPARKTKALLQMVQQFAVDFEKRIEGSGDQIDTYELSGGARINRIFHERFPFELVKMEFDEKELRREISYAIKNIHGIRTGLFTPDMAFETIVKKQVKKIREPCLKCVDMVISELISTVRQCTKKLQQYPRLREEMERIVTTHIREREGRTKEQVMLLIDIELAYMNTNHEDFIGFANAQQRSNQMNKKKTSGNQDEILVIRKGWLTINNIGIMKGGSKEYWFVLTAENLSWYKDDEEKEKKYMLSVDNLKLRDVEKGFMSSKHIFALFNTEQRNVYKDYRQLELACETQEEVDSWKASFLRAGVYPERVGDKEKASETEENGSDSFMHSMDPQLERQVETIRNLVDSYMAIVNKTVRDLMPKTIMHLMINNTAEFIFSELLANLYSCGDQNTLMEESAEQAQRRDEMLRMYHALKEALSIIGDINTTTVSTPMPPPVDDSWLQVQSVPAGRRSPTSSPTPQRRAPAVPPARPGSRGPAPGPPPAGSALGGAPPVPSRPGASPDPFGPPPQVPSRPNRAPPGVPSRSGQASPSRPESPRPPFDL
apparent affinity for self-assembly, fold lower than dynWT: ~7 fold

Source: patent US9144594B2, “Cathepsin L mediated diseases and associated methods and products” (University of Miami, priority 2005, dated 2015)
